Test results reported in US9458189B2, “Ligation of stapled polypeptides” (President and Fellows of Harvard College, priority 2008, dated 2016).
Primed or numbered codes have the meaning given here. No end group written: not given here. *: point of attachment. FITC = O=C1OC2(c3ccc(O)cc3Oc3cc(O)ccc32)c2ccc(NC(=S)*)cc21; PEG3′ = not defined here

Experiment: Circular dichroism of Max basic region peptides
Assay type: physicochemical
Settings: circular dichroism wavelength scans; 100 uM peptide in water
Procedure: Each of the synthesized peptides were purified by HPLC and biochemically characterized. Each peptide was diluted in water to a final concentration of 100 uM using the extinction coefficient of FITC at 495 nm in 50 mM NaH2PO4, pH 8.0. […] One peptide, i, i+4 version 1, was chosen to be synthesized so as to contain a C-terminal thioester. The peptide was synthesized using t-Boc chemistry on 3-S-trityl-mercaptopropionyl resin. The peptide was purified by HPLC and the desired product was confirmed by LC/MS analysis.

## unmodified basic region peptide: unmodified DNA binding basic region of Max (RAHHNALERKRR, SEQ ID NO: 2) with N-terminal PEG-3 linker and FITC ({FITC-PEG3′}-RAHHNALERKRR)
  CD profile (secondary structure in solution): disordered in solution
